# T1: BCMA on MM.1S cells (human multiple myeloma cells that endogenously express BCMA) (human, UniProt Q02223 1-184)
# T1 sequence (looked up): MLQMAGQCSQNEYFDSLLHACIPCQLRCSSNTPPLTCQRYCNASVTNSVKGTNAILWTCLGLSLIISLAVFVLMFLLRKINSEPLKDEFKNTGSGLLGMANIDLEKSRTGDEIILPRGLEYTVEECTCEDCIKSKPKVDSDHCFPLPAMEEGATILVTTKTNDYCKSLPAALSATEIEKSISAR
# Target: T1, BCMA on MM.1S cells (human multiple …)
# Test: cell-based or functional assay
binder,measurement,value
BY-01G CAR (on BCMA CAR-T cell BY-01G) (other) EIVMTQSPSTLSASVGDRVIITCQASENIYRNLAWYQQKPGKAPKLLIYAASLLASGVPSRFSGSGSGAEFTLTISSLQPDDFATYYCQNAFYSSSADNPFGQGTKLTVLGGGGSGGGGSGGGGSEVQLVESGGGLVQPGGSLRLSCTASGFSLSSYAMSWVRQAPGKGLEWIGMISSSGSTHYASWAKGRFTISRDTSKNTVYLQMNSLRAEDTAVYYCARDFYVYSSGTYLEYGMDLWGQGTLVTVSSTTTPAPRPPTPAPTIASQPLSLRPEACRPAAGGAVHTRGLDFACDIYIWAPLAGTCGVLLLSLVITLYCKRGRKKLLYIFKQPFMRPVQTTQEEDGCSCRFPEEEEGGCELRVKFSRSADAPAYQQGQNQLYNELNLGRREEYDVLDKRRGRDPEMGGKPRRKNPQEGLYNELQKDKMAEAYSEIGMKGERRRGKGHDGLYQGLSTATKDTYDALHMQALPPR,"killing of target cell (luciferase activity in target cell, effector/target 1:4, 48 hours)",100%
BY-04G CAR (on BCMA CAR-T cell BY-04G) (other) EIVMTQSPSTLSASVGDRVIINCQASQSVFSNNYLAWYQQKPGKAPKLLIYRASNLASGVPSRFSGSGSGAEFTLTISSLQPDDFATYYCQPTYLSGDWYVAFGQGTKLTVLGGGGSGGGGSGGGGSEVQLVESGGGLVQPGGSLRLSCTASGFSLNYYGMGWVRQAPGKGLEWIGIIAGDRDTYYATWAKGRFTISRDNSKNTVYLQMNSLRAEDTAVYFCARGSYSSTWDGAFDLWGPGTLVTVSSTTTPAPRPPTPAPTIASQPLSLRPEACRPAAGGAVHTRGLDFACDIYIWAPLAGTCGVLLLSLVITLYCKRGRKKLLYIFKQPFMRPVQTTQEEDGCSCRFPEEEEGGCELRVKFSRSADAPAYQQGQNQLYNELNLGRREEYDVLDKRRGRDPEMGGKPRRKNPQEGLYNELQKDKMAEAYSEIGMKGERRRGKGHDGLYQGLSTATKDTYDALHMQALPPR,"killing of target cell (luciferase activity in target cell, effector/target 1:4, 48 hours)",100%
